No end group written: not given here.
T1: P01.3 peptide
T1 chain: KKIVEILKKLVK

T2: P01.1 peptide
T2 chain: KKIVTILKKLVK


Legend:
[1] = biological target: T1, P01.3 peptide; experiment: concentration-dependent circular dichroism (222 nm, 40% TFE)
[2] = biological target: T2, P01.1 peptide; experiment: as above

Row | Kd [1] | Kd [2] | Binder
1 | 51.5 µM |  | Ac-KKIVEILKKLVK-NH2 [P01.3 peptide]
2 |  | 769 µM | KKIVTILKKLVK-NH2 [P01.1 peptide]
